Key:
[1] = target: talin1 F0 domain (murine) (UniProt P26039)
GST-talin head ΔF1 loop = GST-talin head ΔF1 loop (mouse, UniProt P26039 1-433, lacking residues 133–165); assay: pull-down
GST-talin head = GST-talin head (mouse, UniProt P26039 1-433); assay: pull-down

Sequence of GMP.PNP-Rap1 (P62834 whole entry): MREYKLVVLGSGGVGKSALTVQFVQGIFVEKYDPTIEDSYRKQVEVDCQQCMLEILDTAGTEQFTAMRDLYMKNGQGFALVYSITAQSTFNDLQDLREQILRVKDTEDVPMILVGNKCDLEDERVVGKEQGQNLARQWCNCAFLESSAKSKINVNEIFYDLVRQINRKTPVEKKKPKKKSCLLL

Row | Molecule | Kd [1] | Kd (GST-talin head ΔF1 loop) | Kd (GST-talin head)
1 | GMP.PNP-Rap1 (from UniProt P62834 1-184) (natural protein) | 140000 nM | – | –
2 | KLLMIIHDRREFAKFEKEKMNAKWDTGENPIYKSAVTTVVNPKYEGK (domain or fragment, UniProt P05556-1 752-798, looked up) [β1A-integrin cytoplasmic tail (recombinant model protein)] | – | 99 ± 20 nM | 124 ± 19 nM
